Test results published in patent publication US20190153113A1, “CD39 VASCULAR ISOFORM TARGETING AGENTS” (INNATE PHARMA, priority 2015, published 2019).
Positions count from the first letter of the chain named. Numbers in names are those of the source.

Legend:
[1] = biological target: T1, CD39 mutant 3 (R118A, S119A, Q120K, Q122H, E123A) (human, UniProt P49961 1-510); assay: flow cytometry, HEK293T cells transfected with mutant 3
T1 construct: Transfected in HEK293T cells
T1 chain: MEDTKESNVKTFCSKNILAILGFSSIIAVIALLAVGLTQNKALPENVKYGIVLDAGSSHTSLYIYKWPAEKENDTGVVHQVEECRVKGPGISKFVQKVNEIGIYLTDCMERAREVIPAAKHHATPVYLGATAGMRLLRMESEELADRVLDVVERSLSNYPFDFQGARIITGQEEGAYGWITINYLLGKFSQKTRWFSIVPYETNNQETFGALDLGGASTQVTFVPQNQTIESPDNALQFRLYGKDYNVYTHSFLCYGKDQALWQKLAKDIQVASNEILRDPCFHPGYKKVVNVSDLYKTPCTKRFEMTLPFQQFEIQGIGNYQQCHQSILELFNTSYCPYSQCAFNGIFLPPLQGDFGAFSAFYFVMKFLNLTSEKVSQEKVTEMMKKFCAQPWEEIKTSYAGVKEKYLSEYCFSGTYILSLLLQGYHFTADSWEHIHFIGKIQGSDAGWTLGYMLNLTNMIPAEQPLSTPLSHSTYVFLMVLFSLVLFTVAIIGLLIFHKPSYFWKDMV

[2] = biological target: T2, CD39 mutant 2A (V81S, E82A, R111A, V115A) (human, UniProt P49961 1-510); assay: flow cytometry, HEK293T cells transfected with mutant 2A
T2 construct: Transfected in HEK293T cells
T2 chain: T1 chain with V81S, E82A, R111A, V115A, A118R, A119S, K120Q, H122Q, A123E

[3] = biological target: T3, Human CD39 (vascular CD39, NTPDase1, ENTPD1) expressed at the cell surface (human, UniProt P49961 1-510); assay: flow cytometry on HEK cells expressing human CD39, antibody 99 nM to 0.045 nM (FIG. 1 legend says ELISA)
T3 construct: also called huCD39; HEK-huCD39
T3 sequence: T1 chain with A118R, A119S, K120Q, H122Q, A123E
Description: Briefly, 1×10⁵ HEK-huCD39or cynoCD39 cells were incubated with various concentration of unlabeled anti-CD39 antibody or isotype control (IC) from 99 nM to 0.045 nM, for 30 minutes at 4° C. After washes, cells were incubated with Goat anti-mouse H+L labeled secondary antibody for 30 min at 4° C.

[4] = biological target: T4, CD39 mutant 5 (Q96A, N99A, E143A, R147E) (human, UniProt P49961 1-510); assay: flow cytometry on transfected HEK293T cells
T4 construct: Transfected in HEK293T cells
T4 chain: T1 chain with Q96A, N99A, A118R, A119S, K120Q, H122Q, A123E, E143A, R147E

B1: Antibody I-391, Fc silent recombinant chimeric human IgG1 with heavy chain N297Q mutation (antibody, V domains shown)
VH: QIQLVQSGPELKKPGETVKISCKASGYTFRNYGMNWVKQAPGKGLKWMGWINTYTGEPTYADDFKGRFAFSLATSASTAYLQISNLKNEDTATYFCARKAYYGSNYYFDYWGQGTTLTVSS
VL: DIVMTQSHKFMSTSVGDRVSITCKASQDVSTAVAWYQQKPGQSPKLLIYSASYRYTGVPDRFTGSGSGTDFTFTISTVQAEDLAVYYCQQHYTTPPYTFGGGTKLEIKR
Does B1 bind [1]?
Result: binds

Does B1 bind [2]?
Result: binds

And the EC50 [3]?
The EC50 was 14.9 nM.

Does B1 bind [4]?
Result: no binding (tested: dose range 10 to 0.0006 µg/ml)
